{
  "source": "paper PMC3777542",
  "origin": "cited, not measured here",
  "key": {"[1]": {"target": "CD4 cytoplasmic tail (Homo sapiens) (UniProt P01730)"}, "[2]": {"target": "Hck SH3 (Homo sapiens) (UniProt P08631)"}, "[3]": {"target": "Hck (Homo sapiens) (UniProt P08631)"}, "[4]": {"target": "AP-2 hemicomplex (Homo sapiens) (UniProt O95782)", "sequence (O95782 whole entry, chain 1 of 2)": "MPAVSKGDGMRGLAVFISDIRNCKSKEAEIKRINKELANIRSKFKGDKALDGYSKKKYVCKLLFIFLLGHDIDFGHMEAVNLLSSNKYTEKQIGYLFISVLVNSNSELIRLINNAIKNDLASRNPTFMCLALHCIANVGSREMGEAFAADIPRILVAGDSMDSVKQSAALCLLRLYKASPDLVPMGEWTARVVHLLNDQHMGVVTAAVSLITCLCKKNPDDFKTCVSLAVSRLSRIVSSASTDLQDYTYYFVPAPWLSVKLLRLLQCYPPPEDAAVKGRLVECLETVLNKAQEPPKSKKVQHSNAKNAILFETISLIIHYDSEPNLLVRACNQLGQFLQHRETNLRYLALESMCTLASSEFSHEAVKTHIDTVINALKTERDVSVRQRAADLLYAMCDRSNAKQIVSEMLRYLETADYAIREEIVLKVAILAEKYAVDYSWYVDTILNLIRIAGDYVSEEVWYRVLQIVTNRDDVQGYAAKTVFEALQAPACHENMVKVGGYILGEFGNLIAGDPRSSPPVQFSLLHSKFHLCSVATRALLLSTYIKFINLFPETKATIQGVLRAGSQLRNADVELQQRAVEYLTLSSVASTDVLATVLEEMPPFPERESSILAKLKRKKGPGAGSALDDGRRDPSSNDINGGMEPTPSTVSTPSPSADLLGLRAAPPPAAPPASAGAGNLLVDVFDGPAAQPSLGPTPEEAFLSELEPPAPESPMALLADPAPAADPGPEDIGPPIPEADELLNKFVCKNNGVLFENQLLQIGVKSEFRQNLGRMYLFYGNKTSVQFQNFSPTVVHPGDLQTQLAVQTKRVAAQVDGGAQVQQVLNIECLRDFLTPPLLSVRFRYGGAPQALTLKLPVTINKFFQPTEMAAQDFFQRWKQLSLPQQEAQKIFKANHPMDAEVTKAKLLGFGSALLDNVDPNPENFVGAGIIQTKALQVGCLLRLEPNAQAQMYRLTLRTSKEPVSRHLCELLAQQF", "sequence (B2R4Z4 whole entry, chain 2 of 2, further chain)": "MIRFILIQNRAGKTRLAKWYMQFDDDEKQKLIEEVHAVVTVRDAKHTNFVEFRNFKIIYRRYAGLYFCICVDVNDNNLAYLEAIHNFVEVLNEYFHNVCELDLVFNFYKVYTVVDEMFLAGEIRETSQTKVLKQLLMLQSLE", "experiment": "SPR"}},
  "data": [
    {"substance": "Nef (from UniProt P04324)", "values": [
      {"measurement": "Kd", "setting": "[1]", "result": 1000, "unit": "nM"},
      {"measurement": "Kd", "setting": "[2]", "result": 260, "unit": "nM"},
      {"measurement": "Kd", "setting": "[3]", "result": 200, "unit": "nM"},
      {"measurement": "Kd", "setting": "[4]", "result": 6000, "unit": "nM"}
    ]}
  ]
}
